Assay results: PMC6684798, “Structural basis for the target specificity of actin histidine methyltransferase SETD3” (Nature Communications, 2019)
Where two headings read alike, the source gives them in different places. One block for each compound: values may come before it.

Tests used:
[1] = molecular target: T1, SETD3 (Homo sapiens, UniProt Q86TU7); experiment: Ki measurement of sinefungin against SAM for SETD3 (Supplementary Fig. 2a, b); type: biochemical
T1 construct: GST (cleaved yes); made in house; host or cells: Escherichia coli BL21(DE3) CodonPlus
T1 sequence (Q86TU7 1-594): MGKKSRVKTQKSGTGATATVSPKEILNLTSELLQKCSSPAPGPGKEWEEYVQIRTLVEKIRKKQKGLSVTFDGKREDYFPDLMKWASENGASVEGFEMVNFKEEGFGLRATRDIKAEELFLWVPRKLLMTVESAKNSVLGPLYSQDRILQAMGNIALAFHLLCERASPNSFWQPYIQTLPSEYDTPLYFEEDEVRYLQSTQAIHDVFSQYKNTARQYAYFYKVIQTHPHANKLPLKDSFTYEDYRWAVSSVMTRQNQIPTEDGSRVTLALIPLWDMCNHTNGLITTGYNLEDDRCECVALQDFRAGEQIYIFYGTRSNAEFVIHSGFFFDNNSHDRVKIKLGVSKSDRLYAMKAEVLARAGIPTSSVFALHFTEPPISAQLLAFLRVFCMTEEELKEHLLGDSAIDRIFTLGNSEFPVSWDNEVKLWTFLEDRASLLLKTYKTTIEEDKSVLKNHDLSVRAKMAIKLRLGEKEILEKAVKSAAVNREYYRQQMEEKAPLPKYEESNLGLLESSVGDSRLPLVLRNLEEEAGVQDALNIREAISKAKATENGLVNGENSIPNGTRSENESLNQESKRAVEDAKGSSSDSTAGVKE
Procedure: Recombinant human SETD3 (pXC2003) was expressed as a GST-fusion[22] in Escherichia coli BL21(DE3) CodonPlus^TM cells (Stratagene). The SETD3 mutants at residue 255 (N255A; pXC2093 and N255V; pXC2094) were generated with Q5 Site-Directed Mutagenesis Kit (New England Biolabs), confirmed by sequencing and the same protocol for expression and purification were followed. Briefly, the purification was conducted in a BIO-RAD NGC^TM system using a three-column chromatography of glutathione-sepharose, HiTrap Q-HP and Superdex 200. The GST tag was removed by PreScisson Protease (purified in-house). The purified SETD3 proteins at a concentration ~25–35 mg/ml were kept at −80 °C in storage buffer for future use [20 mM Tris (pH 8.0), 200 mM NaCl, 5% glycerol, and 0.5 mM tris (2-carboxyethyl) phosphine (TCEP)].
For Ki measurement of sinefungin (Supplementary Fig. 2a, b), a reaction mixture contained 20 mM Tris/HCl (pH 8.0), 50 mM NaCl, 0.1 mg/ml BSA, 1 mM DTT, 0.18 µM SETD3, 40 µM H73 (residues 66–80) peptide and first incubated with varied concentration of sinefungin (0–100 µM) for 30 min, reactions were then started by addition of 2–8 µM SAM. After 30 min at room temperature, the reactions were terminated by the addition of TFA to 0.1% (v/v). […]

[2] = molecular target: Recombinant human SETD3 (pXC2003), wild type (human) (UniProt Q86TU7)
[3] = molecular target: Recombinant human SETD3 (pXC2003), wild type (human) (UniProt Q86TU7); remark: listed apart in the source

mode of inhibition of SETD3 ([1]; Lineweaver-Burk, H73(66–80) 40 µM, 0–100 µM sinefungin, 2–8 µM SAM, pH 8.0): SAM-competitive inhibitor
Compound: Nc1ncnc2c1ncn2[C@@H]1O[C@H](C[C@@H](N)CC[C@H](N)C(=O)O)[C@@H](O)[C@H]1O [sinefungin, adenosyl ornithine]
support of methyl transfer / inhibition ([1]; Supplementary Fig. 2): does not support the methyl transfer, and thus functions as an inhibitor

Km of steady-state methylation kinetics (MTase-Glo), pH 8.0, room temperature [2]: 21 μM
Compound: actin H73 peptide (residues 66-80) (from UniProt P60709 66-80)

Km of steady-state methylation kinetics (MTase-Glo), pH 10.5, 37 °C [2]: 430 μM
Compound: actin H73K peptide (residues 66-80) (from UniProt P60709 66-80)

Km of steady-state methylation kinetics (MTase-Glo), pH 10.5, 37 °C [3]: 5.2 μM
Compound: actin H73K peptide (residues 66-88) (from UniProt P60709 66-88)
